Laboratory results taken from the supplement of paper PMC10567573.

B1: PHTF1 (parent)
chain: SRHLNSQVKKTTTRWCHIVRDSDS

Variants of: B1
Assay: protein stability index of a GFP-peptide fusion (GPS, HEK-293T) (PSI 1-6); higher = more stable
Details: c terminus: a fixed tail appended
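Also: lentivirally expressed fusions sorted by FACS into six bins by GFP to DsRed ratio, PSI derived from sequencing read proportions per bin multiplied by bin number.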

Variant | protein stability index
SAHLNSQVKKTTTRWCHIVRDSDS [R2A] | 2.38
SIHLNSQVKKTTTRWCHIVRDSDS [R2I] | 2.2
SWHLNSQVKKTTTRWCHIVRDSDS [R2W] | 2.08
SRHLNSQVKKTTPRWCHIVRDSDS [T13P] | 1.8
SRHLNSQVKKTTCRWCHIVRDSDS [T13C] | 2.73
SRHLNSQVKKTTWRWCHIVRDSDS [T13W] | 1.82
SRHLNSQVKKTTFRWCHIVRDSDS [T13F] | 1.81
SRHLNSQVKKTTSRWCHIVRDSDS [T13S] | 2.05
SRHLNSQVKKTTNRWCHIVRDSDS [T13N] | 1.91
SRHLNSQVKKTTHRWCHIVRDSDS [T13H] | 2.02
SRHLNSQVKKTTYRWCHIVRDSDS [T13Y] | 1.72
SRHLNSQVKKTTGRWCHIVRDSDS [T13G] | 2.75
SRHLNSQVKKTTARWCHIVRDSDS [T13A] | 2.31
SRHLNSQVKKTTIRWCHIVRDSDS [T13I] | 1.41
SRHLNSQVKKTTTRWCHIVEDSDS [R20E] | 2.75
SRHLNSQVKKTTTRWCHIVMDSDS [R20M] | 1.69
SRHLNSQVKKTTTRWCHIVDDSDS [R20D] | 2.27
SRHLNSQVKKTTTRWCHIVPDSDS [R20P] | 2.3
SRHYNSQVKKTTTRWCHIVRDSDS [L4Y] | 1.76
SRHENSQVKKTTTRWCHIVRDSDS [L4E] | 2.56
SRHTNSQVKKTTTRWCHIVRDSDS [L4T] | 2.06
SRHWNSQVKKTTTRWCHIVRDSDS [L4W] | 2.25
SRHMNSQVKKTTTRWCHIVRDSDS [L4M] | 1.76
SRHSNSQVKKTTTRWCHIVRDSDS [L4S] | 2.29

Variant | protein stability index
SRHVNSQVKKTTTRWCHIVRDSDS [L4V] | 2.03
SRHGNSQVKKTTTRWCHIVRDSDS [L4G] | 1.8
SRHDNSQVKKTTTRWCHIVRDSDS [L4D] | 1.99
SRHQNSQVKKTTTRWCHIVRDSDS [L4Q] | 2.12
SRHLPSQVKKTTTRWCHIVRDSDS [N5P] | 2.22
SRHLQSQVKKTTTRWCHIVRDSDS [N5Q] | 1.92
SRHLCSQVKKTTTRWCHIVRDSDS [N5C] | 2.33
SRHLHSQVKKTTTRWCHIVRDSDS [N5H] | 2.56
SRHLYSQVKKTTTRWCHIVRDSDS [N5Y] | 2.16
SRHLWSQVKKTTTRWCHIVRDSDS [N5W] | 2.27
SRHLESQVKKTTTRWCHIVRDSDS [N5E] | 1.59
SRHLRSQVKKTTTRWCHIVRDSDS [N5R] | 3.93
SRHLMSQVKKTTTRWCHIVRDSDS [N5M] | 1.45
SRHLGSQVKKTTTRWCHIVRDSDS [N5G] | 2.79
SRHLDSQVKKTTTRWCHIVRDSDS [N5D] | 2.53
SRHLNSQGKKTTTRWCHIVRDSDS [V8G] | 2.57
SRHLNSQAKKTTTRWCHIVRDSDS [V8A] | 2.26
SRHLNSQSKKTTTRWCHIVRDSDS [V8S] | 2.61
SRHLNSQWKKTTTRWCHIVRDSDS [V8W] | 1.34
SRHLNSQMKKTTTRWCHIVRDSDS [V8M] | 2.08
SRHLNSQNKKTTTRWCHIVRDSDS [V8N] | 1.78
SRHLNSQIKKTTTRWCHIVRDSDS [V8I] | 2.35
SRHLNSQVKKTTTRWCHISRDSDS [V19S] | 2.75
SRHLNSQVKKTTTRWCHITRDSDS [V19T] | 3.13

Variant | protein stability index
SRHLNSQVKKTTTRWCHIQRDSDS [V19Q] | 2.81
SRHLNSQVKKTTTRWCHIRRDSDS [V19R] | 2.2
SRHLNSQVKKTTTRWCHIDRDSDS [V19D] | 3.23
SRHLNSQVKKTTTRWCHIYRDSDS [V19Y] | 2.44
SRHLNSQVKKTTTRWCHINRDSDS [V19N] | 2.55
SRHLNSQVKKTTTRWCHIPRDSDS [V19P] | 2.42
SRHLNSQVKKTTTRWCHICRDSDS [V19C] | 2.19
SRHLNSQVKKTTTRWCHIVRDYDS [S22Y] | 1.94
SRHLNSQVKKTTTRWCHIVRDLDS [S22L] | 1.78
SRHLNSQVKKTTTRWCHIVRDCDS [S22C] | 1.73
SRHLNSQVKKTTTRWCHIVRDIDS [S22I] | 1.45
SRHLNSQVKKTTTRWCHIVRDPDS [S22P] | 1.77
SRHLNSQVKKTTTRWCHIVRDADS [S22A] | 1.82
SRHLNSQVKKTTTRWCHIVRDDDS [S22D] | 1.72
SRHLNSQVKKTTTRWCHIVRDNDS [S22N] | 1.48
SRHLNSAVKKTTTRWCHIVRDSDS [Q7A] | 2.6
SRHLNSVVKKTTTRWCHIVRDSDS [Q7V] | 1.4
SRHLNSCVKKTTTRWCHIVRDSDS [Q7C] | 2.08
SRHLNSDVKKTTTRWCHIVRDSDS [Q7D] | 2.65
SRHLNSFVKKTTTRWCHIVRDSDS [Q7F] | 1.22
SRHLNSEVKKTTTRWCHIVRDSDS [Q7E] | 2.4
SRHLNSKVKKTTTRWCHIVRDSDS [Q7K] | 2.45
SRHLNSGVKKTTTRWCHIVRDSDS [Q7G] | 1.89
SRHLNSYVKKTTTRWCHIVRDSDS [Q7Y] | 1.68

Variant | protein stability index
SRHLNSQVKKRTTRWCHIVRDSDS [T11R] | 2.12
SRHLNSQVKKATTRWCHIVRDSDS [T11A] | 3.08
SRHLNSQVKKHTTRWCHIVRDSDS [T11H] | 2.95
SRHLNSQVKKKTTRWCHIVRDSDS [T11K] | 2.16
SRHLNSQVKKDTTRWCHIVRDSDS [T11D] | 2.97
SRHLNSQVKKLTTRWCHIVRDSDS [T11L] | 1.58
SRHLNSQVKKWTTRWCHIVRDSDS [T11W] | 2.02
SRHLNSQVKKFTTRWCHIVRDSDS [T11F] | 1.94
SRHLNSQVKKITTRWCHIVRDSDS [T11I] | 1.67
SRHLNSQVKKCTTRWCHIVRDSDS [T11C] | 3.08
SRHLNSQVKKNTTRWCHIVRDSDS [T11N] | 1.79
SRHLNSQVKKTTTVWCHIVRDSDS [R14V] | 3.08
SRHLNSQVKKTTTPWCHIVRDSDS [R14P] | 2
SRHLNSQVKKTTTIWCHIVRDSDS [R14I] | 1.94
SRHLNSQVKKTTTAWCHIVRDSDS [R14A] | 3.02
SRHLNSQVKKTTTSWCHIVRDSDS [R14S] | 1.91
SRHLNSQVKKTTTWWCHIVRDSDS [R14W] | 1.65
SRHLNSQVKKTTTRWCIIVRDSDS [H17I] | 1.65
SRHLNSQVKKTTTRWCMIVRDSDS [H17M] | 1.91
SRHLNSQVKKTTTRWCGIVRDSDS [H17G] | 2.65
SRHLNSQVKKTTTRWCTIVRDSDS [H17T] | 1.91
SRHLNSQVKKTTTRWCYIVRDSDS [H17Y] | 2.42
